Results on nine molecules are retold here after PMC11406360, “The enzymatic oxygen sensor cysteamine dioxygenase binds its protein substrates through their N-termini” (The Journal of Biological Chemistry, 2024).

Positions count from the first letter of the chain named. Names may count otherwise. “And” between values parts separate entries of the source, which are not always exact repeats. Equal values may be shown once.

Series [1] concerns the target 2-aminoethanethiol (cysteamine) dioxygenase (ADO), biotinylated, for SPR (human) (UniProt Q96SZ5). Nature of the series: SPR; Biacore T200; biotinylated ADO immobilized on a Biotin CAP chip (∼2500 to 3000 RU), peptide/protein substrates injected; 4 °C; 20 mM Hepes pH 7.5, 500 mM NaCl, 10 mM DTT, 0.1% tween-20; 50 μl/min; multicycle, equilibrium steady state affinity 1:1 binding model. On the technique in general: Surface plasmon resonance follows binding to a sensor surface in real time, without labels.

Series [2] deals with T1, 2-aminoethanethiol (cysteamine) dioxygenase (ADO), biotinylated, for SPR (human, UniProt Q96SZ5 1-270, biotin (N terminally biotinylated; 0.2 mM biotin added at induction)).
T1 chain: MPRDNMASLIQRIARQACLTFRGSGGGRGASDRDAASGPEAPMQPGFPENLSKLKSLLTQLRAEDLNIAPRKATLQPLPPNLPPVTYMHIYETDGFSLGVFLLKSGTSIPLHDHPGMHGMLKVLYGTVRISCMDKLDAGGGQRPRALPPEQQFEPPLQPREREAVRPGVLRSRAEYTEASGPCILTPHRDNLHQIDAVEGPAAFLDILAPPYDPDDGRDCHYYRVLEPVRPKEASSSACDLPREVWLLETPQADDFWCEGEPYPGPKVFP
Put plainly: SPR.

The target in series [3] is cobalt substituted ADO (ADO-Co^2+), biotinylated, for SPR (human) (UniProt Q96SZ5). Nature of the series: SPR; as a1, but single cycle kinetics (SCK) mode fit to a 1:1 binding model; ADO-Co^2+ immobilized.
The target in series [4] is T2, ADO-H193D, biotinylated, for SPR (human, UniProt Q96SZ5 1-270, H193D, biotin (N terminally biotinylated)).
T2 construct: 2-aminoethanethiol (cysteamine) dioxygenase (ADO), human, UniProt Q96SZ5, full length, H193D; Mutant with impaired iron retention (reduced metal occupancy by ICP-MS); source: E. coli Rosetta2(DE3), pQE80L-Navi construct, site-directed mutagenesis, purified (Ni-NTA, SEC); not shown: biotinylation tag (from the vector pQE80L-Navi), N-terminal, kept
T2 sequence (looked up): T1 chain with H193D
Put plainly: SPR; Biacore T200; biotinylated ADO immobilized on a Biotin CAP chip (∼2500 to 3000 RU), peptide/protein substrates injected; 4 °C; 20 mM Hepes pH 7.5, 500 mM NaCl, 10 mM DTT, 0.1% tween-20; 50 μl/min; multicycle, equilibrium steady state affinity 1:1 binding model. The note with it: both partners purified.

Substrate in series [5]: CC(C)C[C@H](NC(=O)CNC(=O)[C@H](C)NC(=O)[C@@H](N)CS)C(=O)N[C@@H](C)C(=O)N[C@@H](C)C(=O)N[C@@H](CC(C)C)C(=O)N1CCC[C@H]1C(=O)N[C@@H](Cc1c[nH]cn1)C(=O)N[C@@H](CO)C(=O)N[C@@H](CS)C(=O)N[C@@H](CC(C)C)C(=O)N[C@@H](CCC(=O)O)C(=O)N[C@@H](CCCNC(=N)N)C(N)=O
Put plainly: LC-MS enzyme activity assay (Nt-cys sulfinylation by ADO). It counts as biochemical, human. To be noted: other: Michaelis-Menten, stopped LC-MS assay, 37 °C, atmospheric O2; three independent experiments; pH 7.5; 37.0 °C. As for the experimental part:
(§1) […] Otherwise stated, the reaction buffer contained 50 mM Tris pH 7.5, 50 mM NaCl, and 5 mM TCEP. The reactions were quenched by mixing the sample 1:10 (peptide) or 1:5 (protein) with 1% formic acid (v/v).
(§2) Peptide and protein samples were injected onto a Chromolith RP-18 Endcapped HPLC Columns (100–2 mm; Merck) and Discovery BIO Wide Pore C5 HPLC Column (Supelco), respectively, heated to 40 °C and eluted at 0.3 ml/min using a gradient of 95% deionized water supplemented with 0.1% (v/v) formic acid to 95% acetonitrile. Oxidation was monitored by an ultra high-performance liquid chromatography MS using ExionLC AD (Sciex) and SelexION (Sciex) mass spectrometer operated in a positive electrospray TOF (+ESI-TOF) mode. Instrument parameters, data acquisition and data processing were controlled by Analyst software (Sciex; https://sciex.com/products/software/analyst-software). The peptide data processing was performed using Skyline software (MacCoss Lab Software; https://skyline.ms/project/home/software/Skyline/begin.view) ([38]). All figures and parameters were generated using GraphPad Prism 9 (GraphPad; https://www.graphpad.com/features).

Substrate in series [6]: CC(C)C[C@H](NC(=O)CNC(=O)[C@H](CCCCN)NC(=O)[C@@H](N)CS)C(=O)N[C@@H](C)C(=O)N[C@@H](C)C(=O)N[C@@H](CC(C)C)C(=O)N1CCC[C@H]1C(=O)N[C@@H](Cc1c[nH]cn1)C(=O)N[C@@H](CO)C(=O)N[C@@H](CS)C(=O)N[C@@H](CC(C)C)C(=O)N[C@@H](CCC(=O)O)C(=O)N[C@@H](CCCNC(=N)N)C(N)=O
The series is described as above. It is filed as biochemical, human. The note with it: other: Michaelis-Menten, stopped LC-MS assay, atmospheric O2, three independent experiments, pH 7.5. As to the method: as §1, §2

Substrate in series [7]: CC(C)C[C@H](NC(=O)[C@H](C)NC(=O)[C@H](CCCCN)NC(=O)[C@@H](N)CS)C(=O)N[C@@H](C)C(=O)N[C@@H](C)C(=O)N[C@@H](CC(C)C)C(=O)N1CCC[C@H]1C(=O)N[C@@H](Cc1c[nH]cn1)C(=O)N[C@@H](CO)C(=O)N[C@@H](CS)C(=O)N[C@@H](CC(C)C)C(=O)N[C@@H](CCC(=O)O)C(=O)N[C@@H](CCCNC(=N)N)C(N)=O
The description is as above. It counts as biochemical, human. The note with it: other: Michaelis-Menten, stopped LC-MS assay, 37 °C, atmospheric O2; three independent experiments; pH 7.5; 37.0 °C. As to the method: as §1, §2

Series [8] concerns the target ADO-H193D, biotinylated, for SPR (human, UniProt Q96SZ5 1-270, H193D, biotin (N terminally biotinylated)). Nature of the series: SPR.
The target of series [9] is T1, 2-aminoethanethiol (cysteamine) …. Nature of the series: SPR; before treatment.
Series [10] has as its target T3, cobalt substituted ADO (ADO-Co^2+), biotinylated, for SPR (human, UniProt Q96SZ5 1-270, biotin (N terminally biotinylated)).
T3 chain: T1 chain
Put plainly: SPR; single cycle kinetics.

Series [11] deals with T1, 2-aminoethanethiol (cysteamine) …. Nature of the series: SPR; post-reconstitution with Fe2+.
The target is the same in series [12]. Nature of the series: SPR; post-metal removal (phenanthroline/EDTA).

Regarding “RGS5 tripeptide (tri-RGS5) (from UniProt O15539 2-4)”, in series [1], the Kd came to 460 nM.

As for “RGS5 dipeptide (di-RGS5) (from UniProt O15539 2-3)”, in series [1], the Kd was found to be 1200 nM.

CKGLAALPASCLER [RGS5-H10A] yielded a Kd in [2] of 240 nM.

B1: native IL32 peptide (first 14 amino acids of the methionine excised N terminus of interleukin 32) (peptide, UniProt P24001 2-15, looked up)
peptide: CFPKVLSDDMKKLK
notes: interleukin 32 (IL32), first 14 amino acids of the methionine excised N terminus: residues 2-15 with the initiating methionine denoted as 1; source: synthetic peptide (SPPS, HPLC purified)
B1 gave a fold increase in binding affinity relative to native ADO in series [3] of 10 fold. The “fold weaker KD than with WT ADO” value in [4] is ~77 fold.

Consider CKGLAAAPHSCLER [RGS5-L8A], for which, in series [2], the Kd is 310 nM.

B2: ADO (Homo sapiens) (protein)
chain: T1 chain
notes: Full-length human ADO (UniProt ID: Q96SZ5) was cloned; made in house; host or cells: Rosetta2(DE3) Escherichia coli
As for B2, the Km was 1970 µM in series [5]; 62 µM and 125 µM in series [6] (25 °C, 25.0 °C); 83 µM in [6] (37 °C, 37.0 °C); 33 µM in [7]. In addition, the kcat in [5] was 100 s⁻¹; in [6] (25 °C, 25.0 °C), 7 s⁻¹ and 19 s⁻¹; in [6] (37 °C, 37.0 °C), 22 s⁻¹; in series [7], 8 s⁻¹. The kcat/Km in series [5] was 0.51 x 10^5 s^-1M^-1; in series [6] (25 °C, 25.0 °C), 1.1 x 10^5 s^-1M^-1 and 1.5 x 10^5 s^-1M^-1; in series [7], 2.4 x 10^5 s^-1M^-1.

B3: native RGS5 peptide (first 14 amino acids of the methionine excised N terminus of RGS5) (peptide, UniProt O15539 2-15, looked up)
peptide: CKGLAALPHSCLER
notes: regulator of G-protein signaling 5 (RGS5), first 14 amino acids of the methionine excised N terminus: residues 2-15 with the initiating methionine denoted as 1; source: synthetic peptide (SPPS, HPLC purified)
Regarding B3, the Kd was 3300 nM in series [8]; 370 nM in [9]; 27 nM in [10]; 330 nM in series [11]; 320 nM in [12]. This molecule also had a fold increase in binding affinity relative to native ADO in series [3] of 10 fold. For the same molecule, in series [4], the “fold weaker KD than with WT ADO” value was ~13 fold.

The molecule CKGAAALPHSCLER [RGS5-L5A] yielded a Kd in series [2] of 220 nM.

Regarding CKGLAALPHACLER [RGS5-S11A], the Kd in series [2] amounted to 350 nM.

As usually defined, the Kd is a measure of binding affinity in units of concentration. A high value points to lower affinity. The term Km denotes the concentration of substrate that gives half-maximal velocity. One may read the kcat as the number of substrate molecules converted per active site and unit of time at saturation.
